Source: patent US20240216557A1 (Memorial Sloan Kettering, published 2024)

Key:
[1] = target: T1, Recombinant Human DLL3 Protein (amino acids Ala27-Ala479, cat #9749-DL, R&D Systems) (human, UniProt Q9NYJ7 27-479); test: BLI, Octet HTX, 25 C; mAb on anti-mouse Fc sensors, DLL3 as analyte from 200 nM
T1 construct: Bought protein
T1 sequence: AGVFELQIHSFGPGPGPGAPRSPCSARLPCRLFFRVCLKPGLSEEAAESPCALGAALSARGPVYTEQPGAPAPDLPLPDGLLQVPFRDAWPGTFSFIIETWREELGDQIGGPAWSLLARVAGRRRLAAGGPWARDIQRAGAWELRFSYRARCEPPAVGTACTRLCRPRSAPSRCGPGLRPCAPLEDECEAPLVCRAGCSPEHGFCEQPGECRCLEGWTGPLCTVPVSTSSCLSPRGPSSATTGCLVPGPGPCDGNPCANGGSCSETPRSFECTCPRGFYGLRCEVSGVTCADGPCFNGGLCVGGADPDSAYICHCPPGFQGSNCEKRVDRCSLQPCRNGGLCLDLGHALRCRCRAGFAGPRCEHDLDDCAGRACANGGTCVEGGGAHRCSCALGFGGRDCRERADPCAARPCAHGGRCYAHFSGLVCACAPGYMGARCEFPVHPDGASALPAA

[2] = target: T2, hDLL3 (human, UniProt Q9NYJ7 27-479, limits assumed); test: method not stated (column 'Affinity hDLL3')
T2 construct: also called human DLL3
T2 sequence: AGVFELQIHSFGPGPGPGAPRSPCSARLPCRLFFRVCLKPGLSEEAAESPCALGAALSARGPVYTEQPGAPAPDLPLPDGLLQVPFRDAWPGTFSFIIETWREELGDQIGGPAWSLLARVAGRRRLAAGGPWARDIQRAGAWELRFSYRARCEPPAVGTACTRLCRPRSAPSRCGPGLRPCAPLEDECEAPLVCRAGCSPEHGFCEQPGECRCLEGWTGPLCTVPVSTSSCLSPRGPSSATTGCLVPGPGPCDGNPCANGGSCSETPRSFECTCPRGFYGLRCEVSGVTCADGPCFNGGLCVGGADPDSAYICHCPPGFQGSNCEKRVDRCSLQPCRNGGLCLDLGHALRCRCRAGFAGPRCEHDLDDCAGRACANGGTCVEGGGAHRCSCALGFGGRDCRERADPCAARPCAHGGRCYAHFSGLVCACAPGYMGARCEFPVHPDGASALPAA

[3] = target: hDLL4 (human, UniProt Q9NR61 27-524, limits assumed); test: ELISA; signal unit not stated
Sequence of hDLL4 (Q9NR61 27-524 limits assumed): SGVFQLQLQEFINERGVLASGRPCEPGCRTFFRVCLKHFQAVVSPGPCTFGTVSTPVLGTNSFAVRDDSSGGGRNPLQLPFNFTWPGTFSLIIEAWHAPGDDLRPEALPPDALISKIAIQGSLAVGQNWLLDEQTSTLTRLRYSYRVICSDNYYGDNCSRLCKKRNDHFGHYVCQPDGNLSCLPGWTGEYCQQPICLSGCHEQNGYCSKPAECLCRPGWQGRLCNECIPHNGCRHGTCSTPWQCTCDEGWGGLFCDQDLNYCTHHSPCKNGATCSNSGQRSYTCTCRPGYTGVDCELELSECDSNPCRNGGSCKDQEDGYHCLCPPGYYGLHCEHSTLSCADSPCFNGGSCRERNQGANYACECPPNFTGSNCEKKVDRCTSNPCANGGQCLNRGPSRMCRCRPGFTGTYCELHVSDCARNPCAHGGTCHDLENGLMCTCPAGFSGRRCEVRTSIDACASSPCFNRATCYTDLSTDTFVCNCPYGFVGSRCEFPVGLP

[4] = target: T2, hDLL3; test: ELISA; signal unit not stated

B1: E23 (antibody, V domains shown)
VH: QVQLVQSGAEVRKPGASVKVSCKASGYTFTGYYMHWVRQAPGQGLEWMGWINSYSGGANYAQKFQDRVTMTRDTSVSTASMELSRLRSDDTAVYYCARDGSGWYGSYFDFWGQGTLVTVSS
VL: DIVMTQTPLSSPVTLGQPASISCRSSQSLVHSDGNTYLSWLQQRPGQPPRLLIYKISNRFSGVPDRFSGSGAGTDFTLKISRVEAEDVGFYYCIQTTQFPLTFGGGTKVEIK
notes: loaded on anti-mouse Fc sensors in BLI
B1 was tested, and the Kd [1] was 0.511 nM.

B2: F9 (antibody, V domains shown)
VH: QVQLVQSGAEVKKPGASVQVSCKASGYTFTSYYMHWVRQAPGQGLEWMGIINPSGGSTSYAQKFQGRVTMTRDTSTSTVYMELSSLRSEDTAVYYCARQGGAQWLVLAFDIWGQGTMVTVSS
VL: EIVLTQSPGTLSLSPGERATLSCRASQSVSSYLAWYQQKPGQPPRLLIYGASSRATGIPDRFSGGGSGTDFTLTISRLEPEDFAVYYCQQYDSSPYTFGQGTKLEIK
notes: also called 1F9
For B2, the Kd [1] was 3.01 nM.

B3: G16 (antibody, V domains shown)
VH: QVQLVQSGAEVKKPGASVQVSCKASGYTFTSYYMHWVRQAPGQGLEWMGIINPSGGSTSYAQKFQGRVTMTRDTSTSTVYMELSSLRSEDTAVYYCARQGGAQWLVLAFDIWGQGTMVTVSS
VL: EIVLTQSPGTLSLSPGERATLSCRASQSVSSYLAWYQQKPGQAPRLLIYGASSRATGIPDRFSGGGSGTDFTLTISRLEPEDFAVYYCQQYGSSPYTFGQGTKLEIK
notes: Purified hybridoma monoclonal antibody; loaded on anti-mouse Fc sensors in BLI
In the case of B3, the Kd [1] is reported as 4.88 nM.

B4: G3 (antibody, V domains shown)
VH: QVQLQESGPGLVKPSETLFLTCTVSGGSISSYYWTWIRQPAGKGLEWIGRIYTSGSTNYNPSLKSRVTMSVDTSKNQFSLKLSSVTAADTAVYYCAREDWESWTFDIWGQGTMVTVSS
VL: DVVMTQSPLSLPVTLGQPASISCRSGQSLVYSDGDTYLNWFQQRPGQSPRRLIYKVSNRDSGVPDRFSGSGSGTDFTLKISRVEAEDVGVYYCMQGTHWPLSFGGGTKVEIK
notes: as for B3
B4 gave a Kd [1] of 0.908 nM.

B5: D8 (antibody, V domains shown)
VH: QVQLVQSGAEVKKPGASVKVSCKASGYTFTTYYMHWVRQAPGQGLEWMGIINPSGGSTSYAQKFQGRVTMTRDTSTSTVYMELSSLRSEDTAVYYCARQGHYIGNYLDYWGQGTLVTVSS
VL: not shown
notes: as for B3
Binder B5 has a Kd [1] of 0.438 nM.

B6: J23 (antibody, V domains shown)
VH: QVQLVQSGAEVKKPGASVKVSCKASGYTFTSYYMHWVRQAPGQGLEWMGIINYSGGSKSYAQKFQGRVTMTRDTSTSTVYMELSSLRSEDTGVYYCARQGRYSGSYLDYWGQGTLVTVSS
VL: not shown
notes: as for B3
B6 gave a Kd [1] of 0.998 nM.

B7: J8 (antibody, V domains shown)
VH: QVHLVQSGAEVKKPGASVKVSCKASGYTFTIYYIHWVRQAPGQGLEWMGIINPSGGSTSYAQKFQGRVTMTRDTSTSTVYMELSSLRSEDTAVYYCSGNDYVDYVTTDYYGMDVWGQGTTVTVSS
VL: DIQMTQSPSSLSASVGDRVTITCRASQGISNYLAWFQQKPGKAPKSLIYAASSLQSGVPSKFSGSGSGTDFTLTISSLQPEDFATYYCQQYNSSPYTFGQGTKLEIK
With B7 the Kd [2] was less than 0.001 nM, the Kd [1] was 0.001 nM and the “ELISA hDLL4” value [3] was 0.085. The “ELISA hDLL3” value [4] was 1.38.

B8: L12 (antibody, V domains shown)
VH: QVQLVQSGAEVKKPGASVKVSCKASGYTFTSYYMHWVRQAPGQGLEWMGIINPSGGSRSYAQKFQGRVTMTRDTSTSTVYMELSSLRSEDTAVYYCARQLELLGNAFDIWGQGTMVTVSS
VL: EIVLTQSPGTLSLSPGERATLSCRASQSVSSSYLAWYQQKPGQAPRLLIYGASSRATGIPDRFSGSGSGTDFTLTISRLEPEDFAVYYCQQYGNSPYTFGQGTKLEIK
notes: as for B3
In the case of B8, the Kd [1] is reported as 3.1 nM.

B9: M11 (antibody, V domains shown)
VH: QVQLVQSGAEVKKPGASVKVSCKASGYTFTSYYIHWVRQAPGQGLEWMGIINPSGGSKSYAQKFQGRVTMTRDTSTGTVYMELSSLRSEDTAVYYCAGQLELLGNAFDIWGQGTMVTVSS
VL: not shown
notes: as for B3
For B9, the Kd [1] was 2.76 nM.

B10: B2 (antibody, V domains shown)
VH: QVQLVQSGAEVKKPGASVKVSCKASGYTFTSYYMHWVRQAPGQGLEWMGIINPSGGSTSYAQKFRGRVTMTRDTSTSTVYMELSSLRSEDTAVYYCARGDYDILTDYYYNMDVWGQGTTVTVSS
VL: DIQMTQSPSAMSASVGDRVTITCRASQGISNYLAWFQQKPGKVPKRLIYAASSLQSGVPSRFSGSGSGTEFTLTISSLQPEDFATYYCLQHNSYPYTFGQGTKLEIK
For B10, the Kd [1] was 1.46 nM, the “ELISA hDLL4” value [3] was 0.043 and the “ELISA hDLL3” value [4] was 1.21.

B11: C22 (antibody, V domains shown)
VH: QVQLVQSGAEVKKPGASVKVSCKASGYTFTSYYMHWVRQAPGQGLEWMGIINPSGGSTSYAQKFQGRVTMTRDTSTSTVYMELSSLRSEDTAVYYCARVADIVGATFDYWGQGTLVTVSS
VL: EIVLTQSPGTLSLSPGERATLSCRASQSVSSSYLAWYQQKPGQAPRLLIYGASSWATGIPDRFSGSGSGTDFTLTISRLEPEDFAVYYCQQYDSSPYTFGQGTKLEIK
notes: as for B3
B11 showed a Kd [1] of 0.431 nM.

B12: F21 (antibody, V domains shown)
VH: EVQLVESGGGLVQPGGSLRLSCAASGFTFSSYWMSWVRQAPGKGLEWVANIKQDGSEKYYVDSVKGRFTISRDNAKNSLYLQMNSLRAEDTAVYYCAREWLRFGGLVYWGQGTLVTVSS
VL: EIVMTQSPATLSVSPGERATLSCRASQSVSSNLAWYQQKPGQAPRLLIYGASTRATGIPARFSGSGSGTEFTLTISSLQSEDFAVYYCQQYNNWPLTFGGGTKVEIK
notes: as for B3
B12 gave a Kd [1] of 6.12 nM.

B13: O24 (antibody, V domains shown)
VH: QVQLVQSGAEVKKPGASVKVSCKASGYTFTSYYLHWVRQAPGHGLEWMAIINPSGGSTSYAQKFLGRVTMTRDTSTNTVYMELSSLRSEDTAVYYCARERQQLDYYYFAMDVWGQGTTVTVSS
VL: DIQMTQSPSSLSASVGDRVTITCRASQGISNYLAWFQQKPGKAPKSLIYAASSLQSGVPSKFSGSGSGTDFTLTISSLQPEDFATYYCQQYNSYPPTFGQGTKVEIK
notes: the description prints the designation as '024' (zero); also called 024
In the case of B13, the Kd [1] is reported as 1.28 nM.

B14: P4 (antibody, V domains shown)
VH: EVQLVESGGGLVKPGGSLRLSCAASGFTFSFYSMNWVRQAPGKGLEWVSSISSSSSYIYYADSVKGRFTISRDNAKNSLYLQMNSLRAEDTAVYYCARNYDFWRGAFDIWGQGTMVTVSS
VL: not shown
notes: as for B3
In the case of B14, the Kd [1] is reported as 6.5 nM.

B15: E9 (antibody, V domains shown)
VH: QVQLVQSGAEVKKPGASVKVSCKASGYTFTSYYMHWVRQAPGQGLEWMGVINSSGGSTSYAQKFQGRVTMTRDTSTSTVYMDLSSLRSEDTAVYYCARGYCTNGVYYDEDFDYWGQGTLVTVSS
VL: DIQMTQSPSSLSASVGDRVTITCRASQGISHYLAWFQQKPGKAPTSLIYAASSLQSGVPSKFSGSGSGTDFTLTISSLQPEDFATYYCQQYNSYPLTFGGGTKVEIK
notes: Purified hybridoma monoclonal antibody (Ablexis AlivaMab Kappa mice); loaded on anti-mouse Fc sensors in BLI
B15 was tested, and the Kd [1] was 0.3 nM.

B16: L22 (antibody, V domains shown)
VH: EVQLLESGGGLVQPGGSLRLSCAASGFTFSSYAMGWVRQTPGKGLEWVSTISGRGGDTYYADSVKGRFTISRDNSKNTLYLQMNSLRAEDTAIYYCAKERGLGFDYWGQGTLVTVSS
VL: DIVMTQTPLSLPVTPGEPASISCRSSQSLLDSDDGNTYLDWYLQKPGQSPQLLIYTLSYRASGVPDRFSGSGSGTDFTLKISRVEAEDVGVYYCMQHLEFPLTFGGGTKVEIK
B16 was tested, and the Kd [2] was 1.46 nM, the Kd [1] was 3.55 nM and the “ELISA hDLL4” value [3] was 0.056. The “ELISA hDLL3” value [4] was 1.64.

B17: B22 (antibody, V domains shown)
VH: EVQLVESGGGLVQPGGSLRLSCAASGFTFNNFWMSWVRQAPGKGLEWVANIKQDGSEKYYVDSVKGRFTISRDNAKNSLYLQMNSLRAEDTAVYYCARESYFDLWGRGTLVTVSS
VL: QAVVTQESALTTSPGETVTLTCRSSTGAVTTSNYANWVQEKPDHLFTGLIGGTNNRAPGVPARFSGSLIGDKAALTITGAQTEDEAIYFCALWYSNRWVFGGGTKLTVL
notes: as for B3
For B17, the Kd [1] was 1.84 nM.

B18: A18 (antibody, V domains shown)
VH: QVTLRESGPALVKSTQTLTLTCTFSGFSLSTSGMCVSWIRQTPGKALEWLALIDWDDNKYYSTSLKTRLIISKDTSKNQVVLTMTNMEPVDTATYYCARIRGYSGSYDAFDIWGQGTMVTVSS
VL: DIVMTQSPLSLPVTPGEPASISCRSSQSLLHSNGYNYLDWYLQKPGQSPHILLYLGSNRAPGVPDRFSGSGSGTDFTLKISRVEAEDVGVYYCMQALQTPFTFGPGTKVDIK
notes: Purified hybridoma monoclonal antibody
B18 showed a Kd [1] of 0.236 nM.
